In publication PMC8025907:

What was measured:
[1] = biological target: T1, His6-BfmR (Pseudomonas aeruginosa MPAO1) (UniProt Q9HWS7); test: EMSA; conditions: 10 mM Tris-Cl pH 8.0, 1 mM DTT, 10% glycerol, 5 mM MgCl2, 10 mM KCl, 50 mM acetyl phosphate; EMSA 30 min at 37 C; footprinting 30 min at room temperature
T1 sequence: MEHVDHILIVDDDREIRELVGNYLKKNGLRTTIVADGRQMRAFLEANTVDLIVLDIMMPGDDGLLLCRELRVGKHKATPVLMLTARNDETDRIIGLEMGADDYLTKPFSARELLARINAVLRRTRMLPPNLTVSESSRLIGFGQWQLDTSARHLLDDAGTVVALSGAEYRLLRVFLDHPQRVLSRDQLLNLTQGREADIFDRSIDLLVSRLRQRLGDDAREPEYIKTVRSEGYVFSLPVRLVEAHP

[2] = biological target: T1, His6-BfmR (Pseudomonas aeruginosa MPAO1); test: DNase I footprinting; conditions: 10 mM Tris-Cl pH 8.0, 1 mM DTT, 10% glycerol, 5 mM MgCl2, 10 mM KCl, 50 mM acetyl phosphate; EMSA 30 min at 37 C; footprinting 30 min at room temperature

GAATATCCGAAAGCCAGACGGTTATCGGCAGAAACTCTTGGTTTTCATTGCAGTCATGCAATCTTCGCAAGGTTGCCGCAATATATGAAACAAACTGTTACATCTGTCGCCCGGACCTGATGCCTCTAGGCCTGCGCCCTTATCCGACGGCCTCATCCAGGCGCTATCCGGCTGCCTGTCACAAAAGCTTTCGCGCTTTGCAGTCTCGCTGTCACAACCCATCCAGATGATCCCCCTCCAGCAGCGCCGGCCGGCGACAGAACCGGCCGTTTCCGCGCTGCTCAAGA (double strand) [oprP promoter]
binding [1]: binds
binding [2]: binds
